Assay results reported in paper PMC11930357.
One block for each substance: values may come before it.

What was measured:
[1] = target: Phosphorylated CSD deletion mutant of HP1α_S97A (residues 1–120, phosphorylated at Ser11–Ser14) (human) (UniProt P45973); assay: SEC-SAXS; Superdex 200 Increase, 20 mM sodium phosphate pH 7.0, 1 mM DTT, 50 mM NaCl; Rg against concentration; profiles fitted with EOM and with reweighted CGMD ensembles (one- or two-molecule systems)
HP1α ΔCSD, 1-120 = HP1α ΔCSD, 1-120 (UniProt P45973); assay: SEC-MALS molar mass; settings: reference: ΔCSD expressed without CK2; sites S11,S12,S13,S14
HP1α = HP1α (UniProt P45973); assay: SEC-MALS molar mass (CSD-mediated dimer); settings: sites S11,S12,S13,S14

HP1α, sequence (P45973 whole entry, change not shown): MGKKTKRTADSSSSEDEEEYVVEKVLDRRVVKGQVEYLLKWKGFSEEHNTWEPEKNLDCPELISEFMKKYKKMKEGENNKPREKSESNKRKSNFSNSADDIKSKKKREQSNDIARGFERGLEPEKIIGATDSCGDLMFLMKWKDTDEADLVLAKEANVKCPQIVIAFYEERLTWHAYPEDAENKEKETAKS
HP1α ΔCSD, 1-120, sequence (P45973 whole entry, stated change not applied): as the sequence (P45973 whole entry, change not shown) above

stoichiometry N [1]: 2
Substance: Phosphorylated CSD deletion mutant of HP1α_S97A (residues 1–120, phosphorylated at Ser11–Ser14) (from UniProt P45973 1-120) (domain or fragment)

other: molar mass (HP1α ΔCSD, 1-120): none in both; reference 16.3
Substance: HP1α ΔCSD, 1-120 (from UniProt P45973) pΔCSD co-expressed with CK2

other: molar mass (HP1α; reference: HP1α expressed without CK2, 500 mM NaCl): same; reference 44.5
Substance: HP1α (from UniProt P45973) pHP1α co-expressed with CK2, 500 mM NaCl

other: molar mass (HP1α; reference: HP1α expressed without CK2, 50 mM NaCl): same; reference 45.7
Substance: HP1α (from UniProt P45973) pHP1α co-expressed with CK2, 50 mM NaCl
